The record followed here is patent US20170369576A1 (UBI US, published 2017).

The target of test [1] is T1, human CD4, membrane-bound on cells (HPB-ALL cells, blood/PBMC CD4+ T cells, assay target cells) (human, UniProt P01730 26-458).
T1 construct: whole, on cells; Target on human HPB-ALL T-leukemic cells, human blood CD4+ T lymphocytes and CD4+ indicator cells of the neutralisation assays; also called CD4 receptor; surface CD4
Kind of test: FACS direct binding to blood CD4+ T cells of one individual, 4°C 1 h (printed as IC50 here, as EC50 in paragraph 342).
Description: The MFI values reflect the degree of receptor occupancy, in particular when these values are normalized and expressed as % MFI.

Test [2] deals with T1, human CD4, membrane-bound on cells …. Kind of test: FACS, fresh blood CD4+ T cells of subject F1; bound dB4 detected by goat anti-hIgG-FITC. A general note: Flow cytometry measures light scatter and fluorescence of single cells or particles in a stream.
Description: (§1) The samples were calibrated with reference beads for fluorescence reading.
The target is the same in test [3]. Kind of test: FACS direct binding to HPB-ALL cells, on ice 1 h, goat F(ab)2 anti-huIgG Fc-FITC; EC50 by MFI, exp. 3.
Protocol: (§2) On V-bottomed microplates, aliquots of 2×10⁵ cells in 0.1 mL per well were added, centrifuged, and liquid discarded. […] This step was repeated one more time. The cells from the three incubations (passages) were investigated. […] The cells were washed once and the liquid discarded after centrifugation. To each well, aliquots of 200 μL of binding buffer were added and transferred to microdilution tubes for flow cytometric analysis. The binding intensity (mean fluorescence intensity, MFI), based on an inlet of 5,000 cells per sample, was read on FACS.
(§3) The absolute MFI values were also normalized to % MFI for purpose of between-passage comparison.
Test [4] has as its target T2, baboon CD4 on CD4 positive T cells (baboon (Papio species), UniProt A0A096MWA4 26-457).
T2 construct: also called baboon CD4+ T cells
Kind of test: binding to baboon CD4 positive T cells (FIG. 21).

The target of test [5] is T1, human CD4, membrane-bound on cells …. Kind of test: FACS direct binding to HPB-ALL cells, on ice 1 h, goat F(ab)2 anti-huIgG Fc-FITC; EC50 by % MFI, exp. 1.
Protocol: as §2, §3
For test [6] the target is unchanged. Kind of test: FACS direct binding to HPB-ALL cells, on ice 1 h, goat F(ab)2 anti-huIgG Fc-FITC; EC50 by % MFI, exp. 2.
Protocol: as §2, §3
Test [7] shares this target. Kind of test: FACS, fresh blood CD4+ T cells of subject F3; bound dB4 detected by goat anti-hIgG-FITC.
Description: as §1
Test [8] shares this target. Kind of test: FACS, fresh blood CD4+ T cells of subject M1; bound dB4 detected by goat anti-hIgG-FITC.
Description: as §1
The target is the same in test [9]. Kind of test: FACS, fresh blood CD4+ T cells of subject M3; free CD4 sites left by dB4 detected by dB4C7-Alexa (250 ng/mL).
The target is the same in test [10]. Kind of test: FACS direct binding to HPB-ALL cells, on ice 1 h, goat F(ab)2 anti-huIgG Fc-FITC; EC50 by MFI, exp. 1.
Protocol: as §2, §3
Test [11] shares this target. Kind of test: FACS, fresh blood CD4+ T cells of subject M1; free CD4 sites left by dB4 detected by dB4C7-Alexa (250 ng/mL).
For test [12] the target is unchanged. Kind of test: FACS, fresh blood CD4+ T cells of subject M2; bound dB4 detected by goat anti-hIgG-FITC.
Description: as §1
Test [13] shares this target. Kind of test: FACS direct binding to HPB-ALL cells, on ice 1 h, goat F(ab)2 anti-huIgG Fc-FITC; EC50 by MFI, exp. 2.
Protocol: as §2, §3
The target is the same in test [14]. Kind of test: FACS, fresh blood CD4+ T cells of subject F3; free CD4 sites left by dB4 detected by dB4C7-Alexa (250 ng/mL).
Test [15] has the same target. Kind of test: FACS, fresh blood CD4+ T cells, mean of six subjects; free CD4 sites left by dB4 detected by dB4C7-Alexa (250 ng/mL).
For test [16] the target is unchanged. Kind of test: saturation binding to HPB-ALL cells on ice 1 h; free antibody by ELISA, bound by subtraction, curve fit; exp. 2. A general note: An ELISA detects its analyte on a solid surface through an enzyme-linked reagent.
Protocol: The resultant saturating free-vs.-bound concentration profiles were analyzed on SigmaPlot by curve-fitting based on the equation, [B]=Bmax·{[F]/([F]+Kd)}, where the respective [B] and [F] stand for the bound and free concentrations.
The binding study was conducted at cold and/or under 0.05% azide to avoid a potential endocytosis of the ligand-receptor complexes. Incubation at room temperature or 37° C. could allow a reaction plateau to be reached sooner. […] The supernatants were collected for determination by ELISA of the free drug concentrations, and the bound fractions were obtained by subtraction from the total.
Test [17] has the same target. Kind of test: FACS, fresh blood CD4+ T cells of subject M2; free CD4 sites left by dB4 detected by dB4C7-Alexa (250 ng/mL).
For test [18] the target is unchanged. Kind of test: FACS, fresh blood CD4+ T cells of subject F2; free CD4 sites left by dB4 detected by dB4C7-Alexa (250 ng/mL).
Test [19] shares this target. Kind of test: comparison of IC50 values, competition FACS on HPB-ALL cells.

Where “and” joins values, the source holds several entries; their conditions need not be identical. Identical values can stand only once.

T2 sequence (A0A096MWA4 entry or part of it limits assumed, form in doubt): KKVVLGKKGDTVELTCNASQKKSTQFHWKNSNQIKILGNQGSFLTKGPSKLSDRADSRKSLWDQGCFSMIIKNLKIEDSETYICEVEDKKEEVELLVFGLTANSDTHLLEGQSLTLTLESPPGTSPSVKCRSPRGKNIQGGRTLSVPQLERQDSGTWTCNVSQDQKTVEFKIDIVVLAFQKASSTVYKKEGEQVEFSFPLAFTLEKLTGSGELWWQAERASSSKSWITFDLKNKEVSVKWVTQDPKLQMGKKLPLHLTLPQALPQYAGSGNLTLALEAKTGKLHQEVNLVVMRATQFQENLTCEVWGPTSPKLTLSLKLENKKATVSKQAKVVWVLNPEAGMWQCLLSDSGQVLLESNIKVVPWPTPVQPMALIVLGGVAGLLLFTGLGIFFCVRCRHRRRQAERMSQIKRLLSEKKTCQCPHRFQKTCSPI

B1: mAb dB4C7 (human deimmunized, Fc-aglycosylated IgG1 derived from murine mAb B4, expressed by clone 7) (antibody, V domains shown)
VH: QVQLVQSGPELKKPGASVKVSCKASGYTFTDYVIHWVKQATGQGLEWIGEIYPGSGSAYSNAKFKDRVTMTADKSSNTAYMELSSLTSDDTAVYFCARRGNGTGFAYWGQGTLVTVSS
VL: DIVLTQSPASLAVSLGQRATITCKAGQSVDYDGDSYMNWYQQKPGQPPKLLIYVASNLESGIPARFSGSGSGTDFTLNIHPVEENDAATYYCQQSYKDPLTFGQGTKLEIKR
modifications: N-glycosylated at Asn101 in the Fv; Fc N-glycosylation site removed (N298H)
notes: treated as one molecule; also called deimmunized B4
The EC50 is the concentration that produces a half-maximal response. Higher therefore signals a need for much substance. A word on the Kd: it is the free concentration of one partner at which half of the binding sites on the other are occupied at equilibrium, for simple one-to-one binding. On to B1, for which the EC50 in test [1] was 23 ng/mL; in [2], 4.7 ng/mL; in test [3], 40.7 ng/mL; in test [4], 290 ng/mL; in test [5], 42.4 ng/mL; in [6], 45.7 ng/mL. Besides, the EC50 in test [7] turned out to be 3.7 ng/mL; in [8], 3.7 ng/mL; in [9], 3.3 ng/mL; in test [10], 42.1 ng/mL; in test [11], 4.8 ng/mL; in test [12], 4.2 ng/mL. Further, the EC50 in test [13] is 43.7 ng/mL; in test [14], 4.3 ng/mL; in test [15] it was 4.7 ng/mL; in test [17], 4.6 ng/mL; in [18], 6.6 ng/mL. Besides, in [16], the Kd was 0.0121 µg/mL and 0.081 nM. Besides, in test [19], the “fold binding affinity against gp120 MN” value is no less than 50 fold.
